From publication PMC6476560 (PLoS ONE, 2019)

B1: wild-type MtbMpa (mycobacterial proteasomal ATPase), hexamer (enzyme)
chain: MGESERSEAFGIPRDSPLSSGDAAELEQLRREAAVLREQLENAVGSHAPTRSARDIHQLEARIDSLAARNSKLMETLKEARQQLLALREEVDRLGQPPSGYGVLLATHDDDTVDVFTSGRKMRLTCSPNIDAASLKKGQTVRLNEALTVVEAGTFEAVGEISTLREILADGHRALVVGHADEERVVWLADPLIAEDLPDGLPEALNDDTRPRKLRPGDSLLVDTKAGYAFERIPKAEVEDLVLEEVPDVSYADIGGLSRQIEQIRDAVELPFLHKELYREYSLRPPKGVLLYGPPGCGKTLIAKAVANSLAKKMAEVRGDDAHEAKSYFLNIKGPELLNKFVGETERHIRLIFQRAREKASEGTPVIVFFDEMDSIFRTRGTGVSSDVETTVVPQLLSEIDGVEGLENVIVIGASNREDMIDPAILRPGRLDVKIKIERPDAEAAQDIYSKYLTEFLPVHADDLAEFDGDRSACIKAMIEKVVDRMYAEIDDNRFLEVTYANGDKEVMYFKDFNSGAMIQNVVDRAKKNAIKSVLETGQPGLRIQHLLDSIVDEFAENEDLPNTTNPDDWARISGKKGERIVYIRTLVTGKSSSASRAIDTESNLGQYL
B2: Pup-Icl1-Fl (fluorescein-labelled pupylated isocitrate lyase 1 Icl1) (complex)
chain 1: MSVVGTPKSAEQIQQEWDTNPRWKDVTRTYSAEDVVALQGSVVEEHTLARRGAEVLWEQLHDLEWVNALGALTGNMAVQQVRAGLKAIYLSGWQVAGDANLSGHTYPDQSLYPANSVPQVVRRINNALQRADQIAKIEGDTSVENWLAPIVADGEAGFGGALNVYELQKALIAAGVAGSHWEDQLASEKKCGHLGGKVLIPTQQHIRTLTSARLAADVADVPTVVIARTDAEAATLITSDVDERDQPFITGERTREGFYRTKNGIEPCIARAKAYAPFADLIWMETGTPDLEAARQFSEAVKAEYPDQMLAYNCSPSFNWKKHLDDATIAKFQKELAAMGFKFQFITLAGFHALNYSMFDLAYGYAQNQMSAYVELQEREFAAEERGYTATKHQREVGAGYFDRIATTVDPNSSTTALTGSTEEGQFH
chain 2: MAQEQTKRGGGGGDDDDIAGSTAAGQERREKLTEETDDLLDEIDDVLEENAEDFVRAYVQKGGE
notes: copies: 4 + 2
B3: Pup-Icl1 (pupylated isocitrate lyase 1 Icl1), unlabelled (complex)
chain 1: B2 chain 1
chain 2: B2 chain 2
notes: copies: 4 + 2

Key:
Assay in all cases: MST
Settings in all cases: both partners purified
[1] = target: Pup-PckA-Fl (fluorescein-labelled pupylated phosphoenolpyruvate carboxykinase PckA) (Mycobacterium tuberculosis, UniProt P9WIH3;P9WHN5, PupE (C-terminal glutamine as glutamate))
[2] = target: B1
[3] = target: T1, fluorescently labelled Dop (deamidase of Pup; depupylase) (UniProt P9WNU9 1-505)
T1 sequence: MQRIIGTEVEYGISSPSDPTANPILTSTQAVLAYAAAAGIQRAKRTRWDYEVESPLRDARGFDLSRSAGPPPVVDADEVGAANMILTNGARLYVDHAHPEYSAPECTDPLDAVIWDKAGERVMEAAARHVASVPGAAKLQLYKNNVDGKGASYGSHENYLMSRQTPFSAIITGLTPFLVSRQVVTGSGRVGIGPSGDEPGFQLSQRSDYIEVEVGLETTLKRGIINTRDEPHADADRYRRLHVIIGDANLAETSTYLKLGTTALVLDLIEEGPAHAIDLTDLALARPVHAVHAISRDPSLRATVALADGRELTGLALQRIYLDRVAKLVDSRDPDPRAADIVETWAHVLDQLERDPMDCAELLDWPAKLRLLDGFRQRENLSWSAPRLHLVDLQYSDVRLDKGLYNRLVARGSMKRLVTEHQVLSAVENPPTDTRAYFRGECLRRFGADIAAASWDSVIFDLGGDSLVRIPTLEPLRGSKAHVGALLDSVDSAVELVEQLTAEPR

B1 gave a Kd [1] of 210 ± 100 nM.

Binder B2 has a Kd [2] of 160 ± 30 nM.

B3 gave a Kd [3] of 129 ± 41 nM.
